Laboratory results reported in patent US20240287190A1 (THERANOTICS, published 2024).

B1: #4 (mono) B7-H3 mono antibody free of TGFβ binding portion (antibody, human IgG1, N297A, V domains shown)
VH: EVQLLESGGGLVQPGGSLRLSCAASGFTFSSYGMHWVRQAPGKGLEWVSAISGSGTSIYYANSVKSRFTISRDNSKNTLYLQMNSLRAEDTAVYYCARGAGWFDYWGQGTLVTVSS
VL: QSVLTQPPSASGTPGQRVTISCSGSTSNIGSNTVNWYQQLPGTAPKLLIYGKNIRPNGVPDRFSGSKSGTSASLAISGLHSEDEADYYCQSYDSSLSGWVFGGGTKLTVL
B2: #3 (mono) B7-H3 mono antibody free of TGFβ binding portion (antibody, human IgG1, N297A, V domains shown)
VH: EVQLLESGGGLVQPGGSLRLSCAASGFTFSTYYMTWVRQAPGKGLEWVSIINPRGGSTSYAEKFQGRFTISRDNSKNTLYLQMNSLRAEDTAVYYCARWNLGMDVWGQGTLVTVSS
VL: EIVLTQSPGTLSLSPGERATLSCRVSQSISSYLNWYQQKPGQAPRLLIYDASHRATGIPDRFSGSGSGTDFTLTISRLEPEDFAVYYCQQYYAPSVTFGQGTKVEIK
B3: #5 (mono) B7-H3 mono antibody free of TGFβ binding portion (antibody, human IgG1, N297A, V domains shown)
VH: EVQLLESGGGLVQPGGSLRLSCAASGFTFSTYAMSWVRQAPGKGLEWVSAISGSGGSTLYADSVKGRFTISRDNSKNTLYLQMNSLRAEDTAVYYCARGGSATWAFDLWGQGTLVTVSS
VL: QSVLTQPPSASGTPGQRVTISCSGSSSNIGSNYVYWYQQLPGTAPKLLIYRNNQRPSGVPDRFSGSKSGTSASLAISGLRSEDEADYYCGTWDSSLSGVVFGGGTKLTVL
B4: #7 (mono) B7-H3 mono antibody free of TGFβ binding portion (antibody, human IgG1, N297A, V domains shown)
VH: EVQLLESGGGLVQPGGSLRLSCAASGFTFSNFWIGWVRQAPGKGLEWVSWINPPGSITSYADSVKGRFTISRDNSKDTLYLQMNSLRAEDTAVYYCAREVGDVLDYWGQGTLVTVSS
VL: QSVLTQPPSASGTPGQRVTISCTGTSSDIGRYNYVSWYQQLPGTAPKLLIYRNTQRPSGVPDRFSGSKSGTSASLAISGLRSEDEADYYCGTWDSSLNAYVFGGGTKLTVL
B5: #6 (mono) B7-H3 mono antibody free of TGFβ binding portion (antibody, human IgG1, N297A, V domains shown)
VH: EVQLLESGGGLVQPGGSLRLSCAASGFTFSTYAISWVRQAPGKGLEWVSSIYYSGYTHYNPSLESRFTISRDNSKNTLYLQMNSLRAEDTAVYYCARGYSGWMDVWGQGTLVTVSS
VL: QSVLTQPPSASGTPGQRVTISCGGNNIGSKSVHWYQQLPGTAPKLLIYDNNKRPSGVPNRFSGSKSGTSASLAISGLRSEDEADYYCAAWDDSLNVPVFGGGTKLTVL
B6: #9 (mono) B7-H3 mono antibody free of TGFβ binding portion (antibody, human IgG1, N297A, V domains shown)
VH: EVQLLESGGGLVQPGGSLRLSCAASGFTFSSYAMNWVRQAPGKGLEWVSTISGSGGQTYYADSVKGRFTISRDNSKNTLYLQMNSLRAEDTAVYYCARWRSIWAFDYWGQGTLVTVSS
VL: QSVLTQPPSASGTPGQRVTISCSDNNIGSKSVHWYQQLPGTAPKLLIYDNNKRPSGVPDRFSGSKSGTSASLAISGLRSEDEADYYCGTWDDSLSGPVFGGGTKLTVL
B7: #8 (mono) B7-H3 mono antibody free of TGFβ binding portion (antibody, human IgG1, N297A, V domains shown)
VH: EVQLLESGGGLVQPGSSLRLSCAASGFTFSSYWISWVRQAPGKGLEWVSEISPSGNTNYNPSLKSRFTISRDNSKNTLYLQMNSLRAEDTAVYYCAREVGDLLDYWGQGTLVTVSS
VL: QSVLTQPPSASGTPGQRVTISCSGSNIGNNYVSWYQQLPGTAPKLLIYQDSKRPSGVPDRFSGSKSGTSASLAISGLRSEDEADYYCLVWDRSSDHFVFGGGTKLTVL

Biological target: T1, recombinant human TGFβ1 protein (R&D Systems, Cat #7754-BH-025/CF) (human, UniProt P01137 279-390)
T1 construct: Bought protein
T1 sequence (P01137 279-390 limits assumed): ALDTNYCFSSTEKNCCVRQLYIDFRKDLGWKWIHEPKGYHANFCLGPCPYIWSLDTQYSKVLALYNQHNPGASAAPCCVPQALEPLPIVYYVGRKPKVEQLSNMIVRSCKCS
Test: bridging ELISA on plate-coated TGFβ1, detected with His-tag human B7-H3; paragraph 158 says the mono antibodies are not bound to TGFβ1

Binding result, no binding:
B1
B2
B3

Biological target: T1, recombinant human TGFβ1 protein (R&D …)
Test: as above
Remark: another data set of the same source

Binding result, no binding:
B4
B5
B6
B7
